Results as given in US20250281611A1 (BIOSCEPTRE AUST, published 2025).
Blank lines part the entries; values can stand above or below the binder they belong to.

Experiments:
ROR1 = biological target: T1, ROR1 (UniProt Q01973 30-937, limits assumed); test: flow cytometry, JeKo-1 cells
T1 construct: whole, on cells

CD79B = biological target: T2, CD79B (UniProt P40259 29-229, limits assumed); test: flow cytometry, JeKo-1 cells
T2 construct: whole, on cells
T2 sequence (looked up): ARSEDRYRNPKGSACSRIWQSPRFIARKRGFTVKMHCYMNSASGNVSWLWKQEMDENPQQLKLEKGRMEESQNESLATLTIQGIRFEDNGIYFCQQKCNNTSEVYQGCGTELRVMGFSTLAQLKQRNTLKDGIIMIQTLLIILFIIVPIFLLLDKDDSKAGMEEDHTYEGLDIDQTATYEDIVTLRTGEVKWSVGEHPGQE

CD123 = biological target: T3, CD123 (UniProt P26951 19-378, limits assumed); test: flow cytometry, MOLM-13 cells
T3 construct: whole, on cells; also called IL3RA

nfP2X7 CAR 1 [1] = biological target: T4, nfP2X7 CAR 1; test: flow cytometry, nfP2X7 CAR 1 T cells (EGFR+ gate), anti-His-FITC detection
T4 construct: CAR-positive cells gated by the co-expressed EGFR marker; also called nfP2X7 targeted CAR; nfP2X7 CAR on EGFR+ T cells

nfP2X7 CAR 1 [2] = biological target: T4, nfP2X7 CAR 1; test: flow cytometry, anti-His-FITC, MFI on EGFR+ (CAR+) over EGFR- (CAR-) T cells
How it was run: (§1)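 CAR T cells incubated with BRiDGE variants at saturating concentrations; bound BRiDGE detected with anti-His-FITC by flow cytometry. EGFR marks CAR expression. Value is median fluorescence intensity on EGFR+ (CAR+) cells divided by that on EGFR− (CAR−) cells.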

nfP2X7 CAR 1 [3] = biological target: T4, nfP2X7 CAR 1; test: flow cytometry, anti-His-FITC, MFI on EGFR+ (CAR+) T cells over background 0.44
How it was run: as §1

CD19 [4] = biological target: T5, CD19 (UniProt P15391 20-556, limits assumed); test: flow cytometry, JeKo-1 cells, BIL03s-AF647 detection, MFI over no-bridge control
T5 construct: whole, on cells; also called CD19 on JeKo-1
T5 sequence (looked up): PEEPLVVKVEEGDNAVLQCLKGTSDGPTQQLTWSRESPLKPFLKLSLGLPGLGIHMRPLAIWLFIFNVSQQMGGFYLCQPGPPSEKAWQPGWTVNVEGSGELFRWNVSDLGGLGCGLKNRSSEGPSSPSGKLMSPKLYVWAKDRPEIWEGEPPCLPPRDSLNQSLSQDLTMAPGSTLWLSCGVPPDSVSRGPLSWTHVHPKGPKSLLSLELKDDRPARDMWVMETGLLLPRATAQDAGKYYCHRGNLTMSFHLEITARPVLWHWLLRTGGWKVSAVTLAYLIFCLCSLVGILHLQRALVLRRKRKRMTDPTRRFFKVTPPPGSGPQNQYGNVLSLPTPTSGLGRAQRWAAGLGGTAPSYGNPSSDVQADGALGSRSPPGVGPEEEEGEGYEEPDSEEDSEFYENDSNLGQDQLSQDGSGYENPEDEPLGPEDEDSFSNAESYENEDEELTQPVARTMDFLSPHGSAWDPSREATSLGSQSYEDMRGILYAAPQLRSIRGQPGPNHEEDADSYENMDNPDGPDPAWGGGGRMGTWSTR
Description: (§2) JeKo-1 cells were incubated with different CD19 BRiDGE variants at saturating concentrations. […] The MFI intensity correlates with the number of secondary bound antibodies bound to the CD19 BRiDGE variants that are only detected if they are bound to the JeKo-1 cells. MFI: median fluorescence intensity. BLitz: Bio-Layer interferometry (BLI) technology using HIS-tag identification tips. […] The higher the MFIR, the stronger the binding.

CD19 [5] = biological target: T5, CD19; test: flow cytometry, JeKo-1 cells, bridge at saturating conc., BIL03s-AF647 detection
Description: as §2

CD19 [6] = biological target: T5, CD19; test: flow cytometry, JeKo-1 cells, anti-His-FITC detection, MFI over no-bridge control
Description: as §2

CD19 [7] = biological target: T5, CD19; test: flow cytometry, JeKo-1 cells, bridge at saturating conc., anti-His-FITC detection
Description: as §2

CD70 = biological target: T6, CD70 (UniProt P32970 1-193, limits assumed); test: flow cytometry, Raji cells
T6 construct: whole, on cells
T6 sequence (looked up): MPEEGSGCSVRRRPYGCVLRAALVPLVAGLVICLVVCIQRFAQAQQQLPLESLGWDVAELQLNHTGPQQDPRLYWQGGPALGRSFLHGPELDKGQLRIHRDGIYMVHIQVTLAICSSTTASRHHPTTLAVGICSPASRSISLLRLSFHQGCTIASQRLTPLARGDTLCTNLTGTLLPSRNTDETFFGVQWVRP

CD37 = biological target: T7, CD37 (UniProt P11049 1-281, limits assumed); test: flow cytometry, JeKo-1 cells
T7 construct: whole, on cells
T7 sequence (looked up): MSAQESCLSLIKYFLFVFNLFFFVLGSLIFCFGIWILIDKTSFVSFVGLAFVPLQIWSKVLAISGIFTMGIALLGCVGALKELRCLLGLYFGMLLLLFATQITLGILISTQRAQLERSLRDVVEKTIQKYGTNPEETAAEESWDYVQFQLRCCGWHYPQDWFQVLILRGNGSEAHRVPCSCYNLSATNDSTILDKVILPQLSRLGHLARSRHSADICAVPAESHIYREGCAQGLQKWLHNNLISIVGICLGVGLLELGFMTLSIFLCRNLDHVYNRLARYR

CD22 = biological target: T8, CD22 (UniProt P20273 20-847, limits assumed); test: flow cytometry, Raji cells
T8 construct: whole, on cells

CD135 = biological target: T9, CD135 (UniProt P36888 27-993, limits assumed); test: flow cytometry, MOLM-13 cells
T9 construct: whole, on cells; also called FLT-3

T3 sequence (P26951 19-378 limits assumed): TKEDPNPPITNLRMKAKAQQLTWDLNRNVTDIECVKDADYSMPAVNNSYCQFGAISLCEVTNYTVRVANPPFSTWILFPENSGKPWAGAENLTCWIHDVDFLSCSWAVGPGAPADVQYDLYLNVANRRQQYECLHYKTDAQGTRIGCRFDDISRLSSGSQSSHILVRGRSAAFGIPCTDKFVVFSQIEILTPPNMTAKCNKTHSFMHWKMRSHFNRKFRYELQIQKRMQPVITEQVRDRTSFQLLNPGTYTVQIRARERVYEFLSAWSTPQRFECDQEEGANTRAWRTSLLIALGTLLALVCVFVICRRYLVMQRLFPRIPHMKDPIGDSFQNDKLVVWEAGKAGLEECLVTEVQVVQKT

binding result (ROR1): binds
B1: ROR1 bridging molecule (E200 + ROR-1 binder, clone D10v3, B044) (Fab, V domains shown)
VH: QVQLKESGPGLVAPSQTLSITCTVSGFSLTSYGVHWVRQPPGKGLEWLGVIWAGGFTNYNSALKSRLSISKDNSKSQVLLKMTSLQTDDTAMYYCARRGSSYSMDYWGQGTSVTVSS
VL: EIVLSQSPAITAASLGQKVTITCSASSNVSYIHWYQQRSGTSPRPWIYEISKLASGVPVRFSGSGSGTSYSLTISSMEAEDAAIYYCQQWNYPLITFGSGTKLEIQR

binding result (CD79B): binds
B2: CD79B bridging molecule (E200 + CD79B binder, Polatuzumab, B025) (Fab, V domains shown)
VH: EVQLVESGGGLVQPGGSLRLSCAASGYTFSSYWIEWVRQAPGKGLEWIGEILPGGGDTNYNEIFKGRATFSADTSKNTAYLQMNSLRAEDTAVYYCTRRVPIRLDYWGQGTLVTVSS
VL: DIQLTQSPSSLSASVGDRVTITCKASQSVDYEGDSFLNWYQQKPGKAPKLLIYAASNLESGVPSRFSGSGSGTDFTLTISSLQPEDFATYYCQQSNEDPLTFGQGTKVEIKR

binding result (CD123): binds
B3: CD123 bridging molecule (E200 + CD123 binder, clone 32716, B042) (Fab, V domains shown)
VH: QIQLVQSGPELKKPGETVKISCKASGYIFTNYGMNWVKQAPGKSFKWMGWINTYTGESTYSADFKGRFAFSLETSASTAYLHINDLKNEDTATYFCARSGGYDPMDYWGQGTSVTVSS
VL: DIVLTQSPASLAVSLGQRATISCRASESVDNYGNTFMHWYQQKPGQPPKLLIYRASNLESGIPARFSGSGSRTDFTLTINPVEADDVATYYCQQSNEDPPTFGAGTKLELKR

MFI HisTag FITC in EGFR+ Population (nfP2X7 CAR 1 [1]): 2.41
HisTag MFI Ratio of EGFR+/EGFR- (nfP2X7 CAR 1 [2]): 4.3
HisTag MFI Ratio (background 0.44) (nfP2X7 CAR 1 [3]): 5.5
MFIR BIL03 AF647 (CD19 [4]): 15.3
MFI Bil03 AF647 (CD19 [5]): 7.04
MFIR HisTag FITC (CD19 [6]): 2.84
MFI HisTag FITC (CD19 [7]): 2.19
B4: CD19 BRIDGE variant B34 (Fab)
heavy: EVQLVESGGGLVKPGGSLKLSCAASGYTFTSYVMHWVRQAPGKGLEWIGYINPYNDGTKYNEKFQGRVTISSDKSISTAYMELSSLRSEDTAMYYCARGTYYYGTRVFDYWGQGTLVTVSSASTKGPSVFPLAPSSKSTSGGTAALGCLVKDYFPEPVTVSWNSGALTSGVHTFPAVLQSSGLYSLSSVVTVPSSSLGTQTYICNVNHKPSNTKVDKKVEPKSCHHHHHH
light: DFPGHNYTTRNILPGLNITSTFHKTSGSGKEPKSSDKTHTGGGGSDIVMTQSPATLSLSPGERATLSCRSSKSLQNVNGNTYLYWFQQKPGQSPQLLIYRMSNLNSGVPDRFSGSGSGTEFTLTISSLEPEDFAVYYCMQHLEYPITFGAGTKLEIKRTVAAPSVFIFPPSDEQLKSGTASVVCLLNNFYPREAKVQWKVDNALQSGNSQESVTEQDSKDSTYSLSSTLTLSKADYEKHKVYACEVTHQGLSSPVTKSFNRGEC

MFI HisTag FITC in EGFR+ Population (nfP2X7 CAR 1 [1]): 2.51
HisTag MFI Ratio of EGFR+/EGFR- (nfP2X7 CAR 1 [2]): 4.1
HisTag MFI Ratio (background 0.44) (nfP2X7 CAR 1 [3]): 5.7
MFIR BIL03 AF647 (CD19 [4]): 20.6
MFI Bil03 AF647 (CD19 [5]): 9.49
MFIR HisTag FITC (CD19 [6]): 3
MFI HisTag FITC (CD19 [7]): 2.31
B5: CD19 BRIDGE variant B35 (Fab)
heavy: B4 heavy
light: DFPGHNYTTRNILPGLNITSTFHKTSGSGKGSEPKSSDKTHTGGGGSDIVMTQSPATLSLSPGERATLSCRSSKSLQNVNGNTYLYWFQQKPGQSPQLLIYRMSNLNSGVPDRFSGSGSGTEFTLTISSLEPEDFAVYYCMQHLEYPITFGAGTKLEIKRTVAAPSVFIFPPSDEQLKSGTASVVCLLNNFYPREAKVQWKVDNALQSGNSQESVTEQDSKDSTYSLSSTLTLSKADYEKHKVYACEVTHQGLSSPVTKSFNRGEC

MFI HisTag FITC in EGFR+ Population (nfP2X7 CAR 1 [1]): 2.41
HisTag MFI Ratio of EGFR+/EGFR- (nfP2X7 CAR 1 [2]): 4.2
HisTag MFI Ratio (background 0.44) (nfP2X7 CAR 1 [3]): 5.5
MFIR BIL03 AF647 (CD19 [4]): 19.9
MFI Bil03 AF647 (CD19 [5]): 9.15
MFIR HisTag FITC (CD19 [6]): 2.97
MFI HisTag FITC (CD19 [7]): 2.29
B6: CD19 BRIDGE variant B36 (Fab)
heavy: B4 heavy
light: DFPGHNYTTRNILPGLNITSTFHKTSGSGKGGGGSEPKSSDKTHTGGGGSDIVMTQSPATLSLSPGERATLSCRSSKSLQNVNGNTYLYWFQQKPGQSPQLLIYRMSNLNSGVPDRFSGSGSGTEFTLTISSLEPEDFAVYYCMQHLEYPITFGAGTKLEIKRTVAAPSVFIFPPSDEQLKSGTASVVCLLNNFYPREAKVQWKVDNALQSGNSQESVTEQDSKDSTYSLSSTLTLSKADYEKHKVYACEVTHQGLSSPVTKSFNRGEC

binding result (CD70): binds
B7: CD70 bridging molecule (E200 + CD70 binder, Cusatuzumab, B028) (Fab, V domains shown)
VH: EVQLVESGGGLVQPGGSLRLSCAASGFTFSVYYMNWVRQAPGKGLEWVSDINNEGGTTYYADSVKGRFTISRDNSKNSLYLQMNSLRAEDTAVYYCARDAGYSNHVPIFDSWGQGTLVTVSS
VL: SQAVVTQEPSLTVSPGGTVTLTCGLKSGSVTSDNFPTWYQQTPGQAPRLLIYNTNTRHSGVPDRFSGSILGNKAALTITGAQADDEAEYFCALFISNPSVEFGGGTQLTVLK

binding result (CD37): binds
B8: CD37 bridging molecule (E200 + CD37 binder, Otlertuzumab, B026) (Fab, V domains shown)
VH: EVQLVQSGAEVKKPGESLKISCKGSGYSFTGYNMNWVRQMPGKGLEWMGNIDPYYGGTTYNRKFKGQVTISADKSISTAYLQWSSLKASDTAMYYCARSVGPFDSWGQGTLVTVSS
VL: EIVLTQSPATLSLSPGERATLSCRASENVYSYLAWYQQKPGQAPRLLIYFAKTLAEGIPARFSGSGSGTDFTLTISSLEPEDFAVYYCQHHSDNPWTFGQGTKVEIKR

binding result (CD22): binds
B9: CD22 bridging molecule (E200 + CD22 binder, m971-L7, B023) (Fab, V domains shown)
VH: QVQLQQSGPGMVKPSQTLSLTCAISGDSVSSNSVAWNWIRQSPSRGLEWLGRTYYRSTWYNDYAVSMKSRITINPDTNKNQFSLQLNSVTPEDTAVYYCAREVTGDLEDAFDIWGQGTMVTVSS
VL: DIQMIQSPSSLSASVGDRVTITCRASQTIWSYLNWYRQRPGEAPNLLIYAASSLQSGVPSRFSGRGSGTDFTLTISSLQAEDFATYYCQQSYSIPQTFGQGTKLEIKR

binding result (CD135): binds
B10: CD135 bridging molecule (E200 + CD135 binder, clone 4G8, B041) (Fab, V domains shown)
VH: QVQLQQPGAELVKPGASLKLSCKSSGYTFTSYWMHWVRQRPGHGLEWIGEIDPSDSYKDYNQKFKDKATLTVDRSSNTAYMHLSSLTSDDSAVYYCARAITTTPFDFWGQGTTLTVSS
VL: DIVLTQSPATLSVTPGDSVSLSCRASQSISNNLHWYQQKSHESPRLLIKYASQSISGIPSRFSGSGSGTDFTLSINSVETEDFGVYFCQQSNTWPYTFGGGTKLEIKR
